{
  "source": "patent US12194082B2",
  "about": "“Compositions and methods for treatment of homocystinuria” (THE REGENTS OF THE UNIVERSITY OF COLORADO, priority 2016, dated 2025)",
  "key": {"tHcy, cystathionine": {"system": "tHcy, cystathionine", "experiment": "Betaine, PEGC15S and combination treatment: transsulfuration metabolites", "format": "in vivo, HO mice", "description": "(§1) Plasma metabolites homocysteine, cystathionine and cysteine were determined by stable-isotope-dilution liquid chromatography mass spectrometry as previously described in (Allen et al., 1993, Metabolism, 42: 1448-1460). Measurements of total non-protein bound homocysteine and other aminothiols as well as of amino acids in tissue were performed as described in (Maclean et al., 2010b. Mol. Genet. Metab. 101, 153-162). Metabolites were determined by stable-isotope-dilution liquid chromatography mass spectrometry.\nThe betaine and betaine+PEGC15S groups were treated with 2% betaine in the drinking water throughout the 18 days of the experiment, and the latter group was injected with 7.5 mg/kg PEGC15S on days 14 and 15. The PEGC15S single treatment group was maintained on regular water and injected on days 14 and 15 as well. […] The betaine single treatment group maintained these levels of tHcy to day 18. […] Thus, the combination of PEGC15S with betaine allows for maintaining lower tHcy levels for an extended period of time."}, "[1]": {"experiment": "htCBS activity during in vitro incubation in mouse plasma at 37° C.", "format": "in vitro ADME, wild type or HO mice", "description": "The rapid decline in htCBS activity in vivo may be attributed to a facilitated clearance from circulation and may also be attributed to the loss of enzymatic activity of htCBS once introduced to the environment in circulation. To test the latter, htCBS was incubated in vitro in mouse plasma of wild type or HO mice at 37° C. for up to 96 hours, with activity measured every 24 hours. […] A modest 25% loss of activity was recorded after 96 hours of incubation."}, "[2]": {"experiment": "Pharmacokinetics of htCBS after a single dose (plasma CBS activity)", "format": "in vivo, C57BL/6J mice", "settings": "for observed peak plasma level: first 4 hours", "description": "The pharmacokinetic properties of a pharmacologically active substance that is administered to circulation is greatly affected by natural mechanisms of ADME. Rapid clearance of the injected molecule may greatly impact treatment efficacy and thus longer circulating half-lives are desired, which may translate into less frequent administrations or smaller doses that in turn minimize the side effects. To determine the pharmacokinetics of htCBS in plasma circulation, a single dose of 5 mg/kg was injected via subcutaneous (SC), intravenous (IV) or intraperitoneal (IP) routes to C57BL/6J mice."}, "[3]": {"experiment": "CBS enzyme activity assay, specific activity of pure enzyme", "format": "biochemical", "settings": "PEGylated vs non-PEGylated htCBS", "procedure": "CBS activity was determined by a radioisotope assay with C^14-labeled serine as a substrate. Ten μl (total 490 ng) of pure htCBS in dilution buffer (0.1 M Tris-HCl pH=8.6, 1 mM DTT, 10 μM PLP, 0.5 mg/ml BSA) or 10 μl of plasma were added to 85 μl of reaction mixture containing 0.1 M Tris-HCl pH=8.6, 10 mM L-serine, 0.5 mM PLP, 0.5 mg/ml BSA and 0.3 μCi (for pure enzyme) or 0.45 μCi (for plasma) of L-[C^14(U)]-Serine. Samples were incubated for 5 min at 37° C. and reaction was initiated by addition of 5 μl of 0.2 M Hcy (10 mM final concentration). Following 30 min of incubation at 37° C., a 20 μl aliquot of the assay mixture was applied onto a grade 3 CHR Whatman (NJ, USA) paper. Assay initiation and sampling of the resulting mixture were staggered so that each reaction time was 30 minutes. Descending paper chromatography was used to isolate the radioactive product (Cth) from a labeled substrate (Ser). The C^14-cystathionine formed in the reaction was separated from C^14-serine by an overnight descending paper chromatography in 2-propanol/formic acid/H2O (75:5.7:18.9 v/v). Radioactivity in the area of the marker cystathionine (detected by staining the marker lane with ninhydrin) was determined by cutting the chromatogram into strips that were submerged in 5 ml of Opti-fluor scintillation cocktail (PerkinElmer, MA, USA) and counted in a Beckman LS-3801 scintillation counter. An enzyme-free sample was used as a blank to monitor the background radioactivity that was then subtracted from each sample. For pure enzyme, specific activity values are expressed as enzyme units (the amount of enzyme that produces 1 μmol of cystathionine/hour) per mg of CBS, and for plasma samples as units per μl plasma."}, "[4]": {"system": "homocysteine, cystathionine and cysteine", "experiment": "Repeated administration of htCBS or PEGhtCBS: plasma and tissue metabolites", "format": "in vivo, HO mice", "settings": "5 mg/kg, 5 consecutive days on weeks 1 and 3", "description": "as §1\nThis lack of metabolic modulation by non-PEGylated htCBS further confirms the necessity to modify htCBS by covalent attachment of polyethylene glycol molecules.\nThe long term effect of PEGhtCBS administration was monitored using HO mice. The PEGhtCBS enzyme was administered to 8 HO mice at a dose of 7.5 mg/kg, twice a week (Monday and Thursday) for the first two weeks, and then three times a week (Monday, Wednesday and Friday) for 6 weeks. Blood samples were collected 24 hours (Tuesday) and 72 hours (Monday) post injection (FIG. 4A-4C). […] Cystathionine and cysteine levels were positively influenced as well. […] In addition to analysis of plasma metabolites levels, liver, kidney and brain tissue samples from the injected mice were analyzed as well to determine the levels of non-protein bound homocysteine (free and disulfide-linked forms)."}},
  "note": "Values joined by “and” are separate entries in the source; they are usually repeats but may differ in a detail not shown here. Identical values can stand only once.",
  "data": [
    {"molecule": "C[N+](C)(C)CC(=O)O", "note": "[betaine, N,N,N-trimethylglycine]", "values": [
      {"measurement": "decrease in tHcy", "setting": "tHcy, cystathionine; 14 days of 2% betaine in drinking water", "value": "29% and 32%"},
      {"measurement": "cystathionine change", "setting": "tHcy, cystathionine; throughout the 18 days", "value": "did not result in an increase"}
    ]},
    {"molecule": "htCBS: truncated recombinant human CBS (SEQ ID NO: 3) where the C-terminal regulatory region has been removed", "values": [
      {"measurement": "loss of activity in mouse plasma", "setting": "[1]; after 96 hours", "value": 25, "unit": "%"},
      {"measurement": "loss of activity in mouse plasma", "setting": "[1]; up to 72 hours", "value": "no significant loss of activity"},
      {"measurement": "AUC(0-t) (obs area)", "setting": "[2]; 5 mg/kg IP", "value": 932.4, "unit": "mU-hr/μL"},
      {"measurement": "Bioavailability", "setting": "[2]; 5 mg/kg IP", "value": 92, "unit": "%"},
      {"measurement": "E Half-life", "setting": "[2]; 5 mg/kg IP", "value": 4.3, "unit": "h"},
      {"measurement": "MRT (area)", "setting": "[2]; 5 mg/kg IP", "value": 7.9, "unit": "h"},
      {"measurement": "cmax (obs)", "setting": "[2]; 5 mg/kg IP", "value": 75.9, "unit": "Mu/μL"},
      {"measurement": "observed peak plasma level", "setting": "[2]; 5 mg/kg IP", "value": "≤ 76", "unit": "mU/μL"},
      {"measurement": "AUC(0-t) (obs area)", "setting": "[2]; 5 mg/kg IV", "value": 1011, "unit": "mU-hr/μL"},
      {"measurement": "E Half-life", "setting": "[2]; 5 mg/kg IV", "value": 2.7, "unit": "h"},
      {"measurement": "MRT (area)", "setting": "[2]; 5 mg/kg IV", "value": 4.9, "unit": "h"},
      {"measurement": "observed peak plasma level", "setting": "[2]; 5 mg/kg IV", "value": "up to 123 mU/μL"},
      {"measurement": "AUC(0-t) (obs area)", "setting": "[2]; 5 mg/kg SC", "value": 500.9, "unit": "mU-hr/μL"},
      {"measurement": "Bioavailability", "setting": "[2]; 5 mg/kg SC", "value": 50, "unit": "%"},
      {"measurement": "E Half-life", "setting": "[2]; 5 mg/kg SC", "value": 6.1, "unit": "h"},
      {"measurement": "MRT (area)", "setting": "[2]; 5 mg/kg SC", "value": 9.5, "unit": "h"},
      {"measurement": "cmax (obs)", "setting": "[2]; 5 mg/kg SC", "value": 34.5, "unit": "Mu/μL"},
      {"measurement": "Specific Activity", "setting": "[3]", "value": 1193},
      {"measurement": "serum homocysteine levels", "setting": "[4]", "value": "no change"}
    ]}
  ]
}
